According to patent US20200308591A1, “PROMOTER REGION ANALYSIS METHODS AND CELLS FOR PRACTICING SAME” (Eurofins DiscoverX Corporation, priority 2019, published 2020):

T1: RANK (Receptor activator of nuclear factor κ B receptor) co-expressed in U2OS NFκB pathway reporter cells (UniProt Q9Y6Q6)
T1 sequence (looked up): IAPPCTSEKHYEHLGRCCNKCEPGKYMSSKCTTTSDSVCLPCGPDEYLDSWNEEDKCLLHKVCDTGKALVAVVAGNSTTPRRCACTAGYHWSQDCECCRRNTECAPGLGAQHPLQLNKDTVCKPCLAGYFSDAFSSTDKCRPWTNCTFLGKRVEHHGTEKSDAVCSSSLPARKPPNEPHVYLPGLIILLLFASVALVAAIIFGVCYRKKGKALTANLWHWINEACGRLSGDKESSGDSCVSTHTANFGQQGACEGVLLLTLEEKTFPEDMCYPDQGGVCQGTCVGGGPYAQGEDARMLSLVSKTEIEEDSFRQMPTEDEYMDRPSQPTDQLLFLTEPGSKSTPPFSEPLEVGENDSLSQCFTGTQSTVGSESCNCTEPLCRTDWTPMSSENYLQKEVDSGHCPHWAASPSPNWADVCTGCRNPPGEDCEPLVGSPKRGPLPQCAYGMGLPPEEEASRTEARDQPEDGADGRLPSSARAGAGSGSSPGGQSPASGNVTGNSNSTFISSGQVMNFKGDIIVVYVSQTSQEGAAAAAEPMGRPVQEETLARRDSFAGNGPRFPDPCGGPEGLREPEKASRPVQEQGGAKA

T2: RANK (Receptor activator of nuclear factor κ B receptor) (Homo sapiens, UniProt Q9Y6Q6)
T2 construct: expressed in transfected cells; host or cells: U2OS
T2 sequence (Q9Y6Q6 30-616): T1 sequence (looked up)

B1: soluble RANKL (ligand, UniProt O14788 143-317, looked up)
chain: EKAMVDGSWLDLAKRSKLEAQPFAHLTINATDIPSGSHKVSLSSWYHDRGWAKISNMTFSNGKLIVNQDGFYYLYANICFRHHETSGDLATEYLQLMVYVTKTSIKIPSSHTLMKGGSTKYWSGNSEFHFYSINVGGFFKLRSGEEISIEVSNPSLLDPDQDATYFGAFKVRDID

Key:
CD40 receptor [1] = target: T3, CD40 receptor (Homo sapiens, UniProt P25942); experiment: NFkB EFC reporter assay cells, CD40L stimulation (FIG. 7); type: cell-based; settings: 3h or 6h incubation
T3 construct: The cells also endogenously express CD40 (receptor); endogenous in cells; host or cells: U2OS
T3 sequence (P25942 21-277): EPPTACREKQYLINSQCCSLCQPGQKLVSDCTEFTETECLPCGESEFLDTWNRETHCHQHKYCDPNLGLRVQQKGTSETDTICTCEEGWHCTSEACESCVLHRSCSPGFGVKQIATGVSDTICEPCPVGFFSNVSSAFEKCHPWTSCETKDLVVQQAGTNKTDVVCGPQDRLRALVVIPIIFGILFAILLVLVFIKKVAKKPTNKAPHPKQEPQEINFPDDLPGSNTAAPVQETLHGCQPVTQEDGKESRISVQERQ
Source text: Often multiple ligands acting through different cellular receptors will stimulate the same signaling pathway allowing the same EFC reporter assay to be used to study the function and inhibition of function for these multiple ligands. For example, in FIGS. 4-6 stimulation and inhibition of TNFα-stimulated NFkB signaling and gene expression was studied.

CD40 receptor [2] = target: T3, CD40 receptor; experiment: EFC-based versus Luciferase NFκB transcriptional reporter assay, CD40L; type: cell-based; settings: 6h stimulation
Method: FIG. 13. […] U2OS cells stably transfected with a plasmid encoding an NFκB transcriptional response element driving expression of either the EFC reporter (left panel) or (Firefly) Luciferase-PEST were stimulated with a range of concentrations of CD40L for 6h followed by cell lysis, addition of excess EA, incubation for 1h and determination of luminescence (RLU). The luminescence detected indicates the extent of induction of the respective carrier protein by CD40L.
The EFC-based NFκB transcriptional reporter assay was over 35 times more sensitive to CD40L than the luciferase-based assay. Note that the reporter plasmids used to make the stable cell lines had identical elements with the only significant difference being the identity of the carrier protein. Specifically, both plasmids had the same promoter elements and both had the same protein destabilizing element (PEST sequence).

[3] = test system: NFκB (nuclear factor NF-kappa-B p100 subunit) pathway; experiment: U2OS NFκB pathway reporter cell line (Example 7); type: cell-based; settings: 5000 cells/well; 360 min at 37 °C
Source text: (§1) A reporter cell line was engineered to express an Enzyme Donor (ED) tagged carrier protein controlled by a pathway-inducible transcriptional response element. Pathway activation results in induced expressions of the ED-tagged protein. Addition of exogenous Enzyme Acceptor (EA), and buffer, lyses the cell and forces complementation of the ED and EA enzyme fragments.
In this example, the cell line is an NFκB (nuclear factor NF-kappa-B p100 subunit) pathway reporter cell line. The cells are U2OS cells that include a nucleic acid encoding a β-galactosidase donor fragment (ED) having the amino acid sequence […] (SEQ ID NO:30) operably coupled to a promoter region comprising an NFκB response element.
(§2) Cells were plated in a 96-well plate and incubated at 37° C. and 5% CO2 to allow the cells to attach and grow. Cells were then stimulated with a control agonist (here, CD40L), using the assay conditions described below. Following stimulation, signal was detected using the PathHunter® ProLabel®/ProLink™ Detection Kit (Eurofins DiscoverX Corporation) according to the recommended protocol.

CD40 receptor [4] = target: T3, CD40 receptor; experiment: U2OS NF-κB pathway reporter assay with carrier protein (Example 12); type: cell-based; settings: 5000 cells/well; 6 h at 37 °C
Source text: as §1, with “a carrier protein-Enzyme” for “an Enzyme”, “carrier protein-ED-tagged” for “ED-tagged”
In this example, the cell line is a NFκB (nuclear factor NF-kappa-B p100 subunit) pathway reporter cell line. The cells are U2OS cells that include a nucleic acid encoding a reporter fragment and β-galactosidase donor fragment (ED) having the amino acid sequence […] (SEQ ID NO:30) operably coupled to a promoter region comprising a NFκB response element. The cells also endogenously express CD40 (receptor).
as §2

[5] = target: T1, RANK (Receptor activator of nuclear factor κ B receptor) co-expressed in U2OS NFκB pathway reporter cells; experiment: cell-based or functional assay
[6] = target: T2, RANK (Receptor activator of nuclear factor κ B receptor); experiment: U2OS RANK-NFκB pathway reporter assay (Example 13); type: cell-based; settings: 5000 cells/well; 16 h at 37 °C
Source text: as §1, with “a carrier protein-Enzyme” for “an Enzyme”, “carrier protein-ED-tagged” for “ED-tagged”
In this example, the cell line is a NFκB (Nuclear factor NF-kappa-B p100 subunit) pathway reporter cell line. The cells are U2OS cells that include a nucleic acid encoding a reporter fragment and β-galactosidase donor fragment (ED) having the amino acid sequence […] (SEQ ID NO:30) operably coupled to a promoter region comprising a NFκB response element. To produce the RANK-NFκB reporter assay RANK (Receptor activator of nuclear factor κ B receptor) is co-expressed in the above-developed U2OS NFκB Pathway Reporter cells.
as §2, with “sRANKL),” for “CD40L),”

RANK = experiment: Comparison of U2OS NF-κB and U2OS RANK-NF-κB reporter cell lines (Example 16); type: cell-based; settings: FIG. 24b versus FIG. 24a
Source text: as §1, with “Two reporter” for “A reporter”, “cell lines were” for “cell line was”, “express a carrier protein-Enzyme” for “express an Enzyme”, “the carrier protein-ED-tagged” for “the ED-tagged”
In this example, a first cell line is a U2OS-NF-κB pathway reporter cell line and the second cell line is U2OS RANK-NF-κB cell line. The cells are U2OS for both the cell lines as prepared in this example 16. The U2OS-NF-κB cell line includes a nucleic acid encoding a reporter fragment and β-galactosidase donor fragment (ED) having the amino acid sequence […] (SEQ ID NO:30) operably coupled to a promoter region comprising a NFκB response element. The U2OS RANK-NF-κB cell line includes a nucleic acid encoding a reporter fragment and β-galactosidase donor fragment (ED) having the amino acid sequence […] (SEQ ID NO:30) operably coupled to a promoter region comprising a NFκB response element followed by co-expression of RANK-CD27 (receptor) in the above-developed U2OS NF-κB pathway reporter cell line.
Assay results for U2OS NF-κB cell line with CD40L ligand is shown in FIG. 24a and assay results for U2OS RANK NF-κB cell line with sRANK ligand is shown in FIG. 24b.

Molecule | response of endogenous CD40 receptor to ligand (CD40 receptor [1]) | sensitivity of EFC-based assay relative to luciferase-based assay (CD40 receptor [2]) | EC50 for control agonist stimulation [3] [ng/mL] | signal:background ratio at agonist EMAX [3] | EC50 for control agonist stimulation (CD40 receptor [4]) [ng/mL] | signal:background ratio (CD40 receptor [4]) | EC50 for control agonist stimulation, U2OS RANK-NFκB pathway reporter cell line [5] [ng/mL] | signal:background ratio, U2OS RANK-NFκB pathway reporter cell line [5] | EC50 for control agonist stimulation [6] [ng/mL] | signal:background ratio [6] | EC50 compared with U2OS NF-κB cell line with CD40L (RANK) | signal:background ratio compared with U2OS NF-κB cell line with CD40L (RANK)
CD40L: CD40 ligand, control agonist acting through the CD40 receptor | responded robustly | over 35 times | 225.4 | 26.3 | 88.6 | 102.8 |  |  |  |  |  | 
B1 |  |  |  |  |  |  | 4.03 | 24 | 4.034 | 24.0 | lower EC50 | larger signal:background ratio
